Here are results for 7 variants from FireProtDB (doi:10.1093/oxfordjournals.jbchem.a002919).

Sequences and labels used below:
B1: 3-isopropylmalate dehydrogenase, P50455 (parent)
chain: MGFTVALIQGDGIGPEIVSKSKRILAKINELYSLPIEYIEVEAGDRALARYGEALPKDSLKIIDKADIILKGPVGESAADVVVKLRQIYDMYANIRPAKSIPGIDTKYGNVDILIVRENTEDLYKGFEHIVSDGVAVGMKIITRFASERIAKVGLNFALRRRKKVTCVHKANVMRITDGLFAEACRSVLKGKVEYSEMYVDAAAANLVRNPQMFDVIVTENVYGDILSDEASQIAGSLGIAPSANIGDKKALFEPVHGAAFDIAGKNIGNPTAFLLSVSMMYERMYELSNDDRYIKASRALENAIYLVYKERKALTPDVGGNATTDDLINEIYNKLG

The variants in this series derive from B1. The settings on record: Sulfurisphaera tokodaii (strain DSM 16993 / JCM 10545 / NBRC 100140 / 7); pH 7; Thermal; CD; Potassium phosphate 20 mM; structure 1WPW; whole UniProt chain shown.

In general, Tm refers to the temperature at the midpoint of the melting transition.

As to MGFTVALIQGDGIGPEIVSKSKRILAKINELYSLPIEYIEVEAGDRALARYGEALPKDSLKIIDKADIILKGPVGESAADVVVKLRQIYDMYANIRPAKSIPGIDTKYGNVDILIVRENTEDLYKGFEHIVSDGVAVGMKIITRFASERIAKVGLNFALRRRKKVTCVHKANVMRITDGLFAEACRSVLKGKVEYSEMYVDAAAANLVRNPQMFDVIVTENVYGDILSDEASQIAGSLGIAPSANIGDKKALFEPVHGSAPDIAGKNIGNPTAFLLSVSMMYERMYELSNDDRYIKASRALENAIYLVYKERKALTPDVGGNATTDDLINEIYNKLG [A259S F261P], the Tm was 97.1 °C and the “change of melting temperature, mutant - wild type (higher = more stable)” value (from here on “change of melting temperature, mutant”) was determined as 1.1 °C.
MGFTVALIQGDGIGPEIVSKSKRILAKINELYSLPIEYIEVEAGDRALARYGEALPKDSLKIIDKADIILKGPVGESAADVVVKLRQIYDMYANIRPAKSIPGIDTKYGNVDILIVRENTEDLYKGFEHIVSDGVAVGMKIITRFASERIAKVALNFALRRRKKVTCVHKANVMRITDGLFAEACRSVLKGKVEYSEMYVDAAAANLVRNPQMFDVIVTENVYGDILSDEASQIAGSLGIAPSANIGDKKALFEPVHGAAFDIAGKNIGNPTAFLLSVSMMYERMYELSNDDRYIKASRALENAIYLVYKERKALTPDVGGNATTDDLINEIYNKLG [G154A]: the Tm was 97.9 °C and the “change of melting temperature, mutant” value was determined as 1.9 °C.
In the same order, the values of MGFTVALIQGDGIGPEIVSKSKRILAKINELYSLPIEYIEVEAGDRALARYGEALPKDSLKIIDKADIILKGPVGESAADVVVKLRQIYDMYANIRPAKSIPGIDTKYGNVDILIVRENTEDLYKGFEHIVSDGVAVGMKIITRFASERIARVGLNFALRRRKKVTCVHKANVMRITDGLFAEACRSVLKGKVEYSEMYVDAAAANLVRNPQMFDVIVTENVYGDILSDEASQIAGSLGIAPSANIGDKKALFEPVHGAAFDIAGKNIGNPTAFLLSVSMMYERMYELSNDDRYIKASRALENAIYLVYKERKALTPDVGGNATTDDLINEIYNKLG [K152R] are 95.6 °C and -0.4 °C.
In the same order, the values of MGFTVALIQGDGIGPEIVSKSKRILAKINELYSLPIEYIEVEAGDRALARYGEALPKDSLKIIDKADIILKGPVGESAADVVVKLRQIYDMYANIRPAKSIPGIDTKYGNVDILIVRENTEDLYKGFEHIVSDGVAVGMKIITRFASERIAKVGLNFALRRRKKVTCVHKANVMRITDGLFAEACRSVLKGKVEYSEMYVDAAAANLVRNPQMFDVIVTENVYGDILSDEASQIAGSLGIAPSANIGDKKALFEPVHGAAFDIAGKNIGNPTAFLLSVSMMLERMYELSNDDRYIKASRALENAIYLVYKERKALTPDVGGNATTDDLINEIYNKLG [Y282L] are 94.7 °C and -1.3 °C.
For MGFTVALIQGDGIGPEIVSKSKRILAKINELYSLPIEYIEVEAGDRALARYGEALPKDSLKIIDKADIILKGPVGESAADVVVKLRQIYDLYANLRPAKSIPGIDTKYGNVDILIVRENTEDLYKGFEHIVSDGVAVGMKIITRFASERIAKVGLNFALRRRKKVTCVHKANVMRITDGLFAEACRSVLKGKVEYSEMYVDAAAANLVRNPQMFDVIVTENVYGDILSDEASQIAGSLGIAPSANIGDKKALFEPVHGAAFDIAGKNIGNPTAFLLSVSMMYERMYELSNDDRYIKASRALENAIYLVYKERKALTPDVGGNATTDDLINEIYNKLG [M91L I95L], in that order: 99.2 °C and 3.2 °C.
Regarding MGFTVALIQGDGIGPEIVSKSKRILAKINELYSLPIEYIEVEAGDRALARYGEALPKDSLKIIDKADIILKGPVGESAADVVVKLRQIYDLYANLRPAKSIPGIDTKYGNVDILIVRENTEDLYKGFEHIVSDGVAVGMKIITRFASERIARVALNFALRRRKKVTCVHKANVMRITDGLFAEACRSVLKGKVEYSEMYVDAAAANLVRNPQMFDVIVTENVYGDILSDEASQIAGSLGIAPSANIGDKKALFEPVHGSAPDIAGKNIGNPTAFLLSVSMMLERMYELSNDDRYIKASRALENAIYLVYKERKALTPDVGGNATTDDLINEIYNKLG [M91L I95L K152R G154A A259S F261P Y282L], the Tm amounted to 96.4 °C and the “change of melting temperature, mutant” value came to 0.4 °C.
In the same order, the values of MGFTVALIQGDGIGPEIVSKSKRILAKINELYSLPIEYIEVEAGDRALARYGEALPKDSLKIIDKADIILKGPVGESAADVVVKLRQIYDMYANIRPAKSIPGIDTKYGNVDILIVRENTEDLYKGFEHIVSDGVAVGMKIITRFASERIARVALNFALRRRKKVTCVHKANVMRITDGLFAEACRSVLKGKVEYSEMYVDAAAANLVRNPQMFDVIVTENVYGDILSDEASQIAGSLGIAPSANIGDKKALFEPVHGAAFDIAGKNIGNPTAFLLSVSMMYERMYELSNDDRYIKASRALENAIYLVYKERKALTPDVGGNATTDDLINEIYNKLG [K152R G154A] are 97.2 °C and 1.2 °C.
